Assays:
[1] = system: β-lactamase transport in E. coli MM52 (secAts); test: Sodium azide sensitivity of β-lactamase transport in MM52; format: cell-based, Escherichia coli; details: MM52 strain, 30° C., two hours, sodium azide 0 to 1 mM
Procedure: Overnight cultures of MM52-Bce44B, MM52-Oee1-Dhfr, MC4100-Bce44B, and MC4100-Oee1-Dhfr cells were used as inocula for parallel experiments. These freshly inoculated cultures were grown at 30° C. for two hours in media containing increasing concentrations of sodium azide (from 0 to 1 MM). Cells were then harvested, and normalized according to cell number before analysis. […] Azide sensitivity characteristics were firther assessed by growing both wild-type and mutant bacterial lines in the media containing 0.5 mM sodium azide for 0, 1 and 2 hr.
Sensitivity of the bacterial strains to sodium azide was determined in the same manner as outlined in Oliver el al. (1990) Proc. Natl. Acad. Sci. USA 87:8227. Changes to β-lactamase transport activity in response to sodium azide was used as a monitor of differences in the protein translocation activity of Bce44B- versus Oee1-Ohfr-expressing cells. […]
The pBCE44B and pOEEIDHFR plasmids were introduced into E. coli strain MM52 (Oliver and Beckwith, (1981) Cell 25:765) by electroporation using the BioRad Gene Pulser and the supplied protocols for E. coli strains. […] The plasmid-harboring MM52 strains were grown in LB-ampicillin broth and analyzed in the same manner as the JM109(DE3) strains described above.

Arabidopsis thaliana = test: Seed size of transgenic plants carrying the CaMV-Bce44B-NOS transgene; format: in vivo; details: primary generation of transgenic plants
Description: Transgenic plants (Brassica napus, Arabidopsis thaliana and Lycopersicon esculentum) with altered plastid protein transport capacity were produced by introducing a transgene construct consisting of DNA encoding the Bce44B protein and a 5′ untranslated region immediately upstream of the Bce44B coding sequence. Expression of the construct was obtained by linking the cauliflower mosaic virus 35S promoter (Odell, J. T. et al. (1985) Nature 313:810) upstream. Transcriptional termination was facilitated by the gene encoding nopaline synthase (NOS) found in Agrobacterium Ti plasmids or their derivatives such as pBI101 (Clontech). Construction of the 35S CAMV-Bce44B-NOS transgene construct is diagrammed in FIG. 6.
For the seed transformation protocol (Feldmann, K., (1992) In: Methods in Arabidopsis Research (eds. C. Koncz, N. H. Chua, J. Schell) pp 274-289), 2.4 grams of Arabidopsis thaliana (ecotype Wassilewskija) seeds were surface sterilized for 8 minutes in 5.25% (wlv) sodium hypochlorite containing 0.15% (v/v) Tween 20, then rinsed 6-7 times with sterile water. The seeds were apportioned among 40 125 ml flasks containing 40 ml cocultivation medium (CCM) (1×MS salts, 40 g/l sucrose, 10 mg/l thiamine, […] pyridoxine, […] nicotinic acid and 100 mg/l inositol, pH 6.0 with KOH). […]

B1: Bce44B: plastid transport protein, Brassica napus 44 kDa chloroplast envelope protein, member of Com44/Cim44, encoded by SEQ ID NO:1 (protein)
chain: MQTAMKTMMNQMNTQNSQFNNPGFPTGAGAGAGSPFPFPFPPQTSPTTSPFQPQSQSSGATVDLTATKVDRPPVSKPQPTPIPPTKSIEVYKPSVVVEENKAMKEEKNYAFEDVSPEETTKESPFSNYEEVSETSAPKETRLFDDVLQNGAAPANGATASDVFQSLGAGKGWAGGSVEVLEKMIEYPTFQKMLYPHLPEEMRNPESFKWVRKNPQYRQQLQDMLNNMSESGEWDKRMTETLKNFDPNSPEVKQGFDQLGLTPEEVISKIMENPDVSMAFQNPRVEAALMDCSENPMNIMKYQNDKEVMDVFNKISQLFPGLTG
sodium azide concentration at which precursor form of β-lactamase appears [1]: 0.25 to 0.375 mM
seed size relative to wildtype counterparts or pEND4K-only control plants (Arabidopsis thaliana): approximately twice
